These results are taken from doi:10.1101/2021.04.23.441069.

Experiment [1] deals with NyxA (purified, not held on the resin) (Brucella abortus 2308) (UniProt Q2YPD9). As to the kind of experiment: […].
Experiment [2] has as its target NyxB (untagged, His tag cleaved with TEV) (Brucella abortus 2308) (UniProt Q2YPZ9). The experiment in a line: […].

What is called stoichiometry N is a count of units in the complex or per binding partner. In turn, “NyxA (purified, not held on the resin) (from UniProt Q2YPD9 1-129) (natural protein)” showed a stoichiometry N in experiment [1] of 2.

Substance “NyxB (untagged, His tag cleaved with TEV) (from UniProt Q2YPZ9 1-134) (natural protein)” showed a stoichiometry N in experiment [2] of 2.
